For assay [1], the target named is T1, P501S peptide on HLA-B*51:01:01 (human).
T1 peptide: ASACDVSVRV
Kind of assay: cytokine release.

In assay [2] the target is T2, P501S peptide on HLA-B*51:01:01 (human).
T2 peptide: SACDVSVRV
In words: stated without data.

B1: TCR of the P501S-specific T cell clone 4E5 (TCR, V domains shown)
Valpha: AQKITQTQPGMFVQEKEAVTLDCTYDTSDQSYGLFWYKQPSSGEMIFLIYQGSYDEQNATEGRYSLNFQKARKSANLVISASQLGDSAMYFCAMREGAGGGNKLTFGTGTQLKVEL
Vbeta: ETGVTQTPRHLVMGMTNKKSLKCEQHLGHNAMYWYKQSAKKPLELMFVYSLEERVENNSVPSRFSPECPNSSHLFLHLHTLQPEDSALYLCASSQDRTSSSYEQYFGPGTRLTVT
For B1, the binding result in assay [1] and in assay [2] was “recognises” each time.

Values taken from patent EP1988097A1 (dated 2008).
